Test [1] deals with microtubules (MTs). Briefly: TIRF-M dwell time on microtubules with EB1.
Test [2] addresses Alexa-647-labeled KIF5AA (mouse) (UniProt P33175). Briefly: dual color TIRF-M in vitro motility reconstitution.
Test [3] deals with microtubules (MTs). The experiment in a line: TIRF-M dwell time of diffusing molecules on microtubules.

Chain of Alexa-647-labeled KIF5AA (mouse) (P33175 whole entry): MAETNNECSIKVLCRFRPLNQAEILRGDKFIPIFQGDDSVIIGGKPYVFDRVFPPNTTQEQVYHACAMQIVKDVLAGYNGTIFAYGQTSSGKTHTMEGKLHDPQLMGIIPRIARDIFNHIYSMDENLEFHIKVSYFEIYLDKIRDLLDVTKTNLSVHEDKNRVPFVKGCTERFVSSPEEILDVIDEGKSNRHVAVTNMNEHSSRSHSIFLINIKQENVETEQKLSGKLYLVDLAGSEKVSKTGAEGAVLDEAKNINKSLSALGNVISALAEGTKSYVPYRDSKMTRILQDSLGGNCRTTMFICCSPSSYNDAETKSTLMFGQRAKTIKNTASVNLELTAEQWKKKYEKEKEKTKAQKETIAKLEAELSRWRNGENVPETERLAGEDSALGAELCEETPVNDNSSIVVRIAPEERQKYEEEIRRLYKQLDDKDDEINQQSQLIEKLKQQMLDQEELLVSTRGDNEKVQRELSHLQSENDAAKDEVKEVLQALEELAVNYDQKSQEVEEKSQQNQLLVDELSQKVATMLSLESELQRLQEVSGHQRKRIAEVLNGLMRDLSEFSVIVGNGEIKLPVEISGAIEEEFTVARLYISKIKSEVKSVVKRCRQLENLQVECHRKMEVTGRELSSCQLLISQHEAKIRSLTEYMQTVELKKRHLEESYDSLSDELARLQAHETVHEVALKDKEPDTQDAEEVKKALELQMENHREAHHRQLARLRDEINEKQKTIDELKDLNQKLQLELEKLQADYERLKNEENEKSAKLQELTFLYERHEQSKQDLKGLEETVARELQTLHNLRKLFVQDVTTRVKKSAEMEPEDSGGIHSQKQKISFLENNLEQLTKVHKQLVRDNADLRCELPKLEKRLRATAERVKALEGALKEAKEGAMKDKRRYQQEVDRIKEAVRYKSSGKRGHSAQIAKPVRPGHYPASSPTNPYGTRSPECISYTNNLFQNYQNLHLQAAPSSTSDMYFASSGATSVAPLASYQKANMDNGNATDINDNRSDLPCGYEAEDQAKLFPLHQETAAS

In test [1], “adenomatous polyposis coli (APC), full-length, Q61315 1-2845” showed a dwell time with EB1 (fast and slow components) above 60 s. For the same substance, the percent of processive KIF5AA-647 that transports APC–TMR in test [2] was found to be 25%. For the same substance, in test [3], the dwell time, long diffusion events came to 26.3 s.
